IntAct's records for PubMed 15448699

B1: Protein SIC1 (Saccharomyces cerevisiae), P38634 (parent)
chain: MTPSTPPRSRGTRYLAQPSGNTSSSALMQGQKTPQKPSQNLVPVTPSTTKSFKNAPLLAPPNSNMGMTSPFNGLTSPQRSPFPKSSVKRTLFQFESHDNGTVREEQEPLGRVNRILFPTQQNVDIDAAEEEEEGEVLLPPSRPTSARQLHLSLERDEFDQTHRKKIIKDVPGTPSDKVITFELAKNWNNNSPKNDARSQESEDEEDIIINPVRVGKNPFASDELVTQEIRNERKRAMLRENPDIEDVITYVNKKGEVVEKRRLTDEEKRRFKPKALFQSRDQEH
partner: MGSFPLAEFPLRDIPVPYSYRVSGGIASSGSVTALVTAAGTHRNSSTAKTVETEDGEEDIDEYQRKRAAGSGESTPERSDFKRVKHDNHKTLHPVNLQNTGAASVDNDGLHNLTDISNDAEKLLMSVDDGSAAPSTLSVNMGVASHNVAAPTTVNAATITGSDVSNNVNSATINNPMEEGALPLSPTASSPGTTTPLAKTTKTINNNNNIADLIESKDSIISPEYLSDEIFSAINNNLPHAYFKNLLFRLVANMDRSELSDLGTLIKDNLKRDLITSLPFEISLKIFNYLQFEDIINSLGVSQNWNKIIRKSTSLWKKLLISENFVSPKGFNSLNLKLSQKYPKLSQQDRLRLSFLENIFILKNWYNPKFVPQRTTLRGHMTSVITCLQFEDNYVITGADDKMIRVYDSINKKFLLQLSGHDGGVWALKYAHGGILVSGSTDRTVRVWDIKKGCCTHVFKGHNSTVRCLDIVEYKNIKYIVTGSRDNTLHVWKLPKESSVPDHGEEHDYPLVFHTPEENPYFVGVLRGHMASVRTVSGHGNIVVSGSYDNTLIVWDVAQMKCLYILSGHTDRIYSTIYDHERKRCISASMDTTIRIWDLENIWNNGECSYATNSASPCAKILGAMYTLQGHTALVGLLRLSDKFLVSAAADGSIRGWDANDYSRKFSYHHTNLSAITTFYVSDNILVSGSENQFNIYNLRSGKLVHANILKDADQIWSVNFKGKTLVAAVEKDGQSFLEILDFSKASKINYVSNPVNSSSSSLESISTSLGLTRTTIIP
B2: Protein SIC1 (Saccharomyces cerevisiae), P38634 (parent)
chain: B1 chain
partner: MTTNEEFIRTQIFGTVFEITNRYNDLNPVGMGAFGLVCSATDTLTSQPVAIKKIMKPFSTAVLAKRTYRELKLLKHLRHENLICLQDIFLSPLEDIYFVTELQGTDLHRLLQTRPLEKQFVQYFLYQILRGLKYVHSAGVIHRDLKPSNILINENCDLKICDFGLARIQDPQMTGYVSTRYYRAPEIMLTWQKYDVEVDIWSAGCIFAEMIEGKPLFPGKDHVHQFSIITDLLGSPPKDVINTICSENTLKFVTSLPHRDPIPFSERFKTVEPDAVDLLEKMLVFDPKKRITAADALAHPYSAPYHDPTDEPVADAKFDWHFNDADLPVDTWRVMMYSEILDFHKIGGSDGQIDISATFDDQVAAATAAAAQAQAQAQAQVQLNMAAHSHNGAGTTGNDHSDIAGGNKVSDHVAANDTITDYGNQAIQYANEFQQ

Variants of: B1
Conditions: with cdc4_yeast CDC4, P07834

Variant	effect of a mutation on the interaction
T173E	decreasing interaction

Variants of: B2
Conditions: with hog1_yeast HOG1, P32485

Variant	effect of a mutation on the interaction
T173E	disrupting interaction
